Source: patent US20210388087A1 (Chugai, published 2021)
Positions count from the first letter of the chain named. Names may count otherwise.

T1: Human CD3eg linker (human)
T1 construct: Single-chain construct; also called recombinant human CD3
T1 chain: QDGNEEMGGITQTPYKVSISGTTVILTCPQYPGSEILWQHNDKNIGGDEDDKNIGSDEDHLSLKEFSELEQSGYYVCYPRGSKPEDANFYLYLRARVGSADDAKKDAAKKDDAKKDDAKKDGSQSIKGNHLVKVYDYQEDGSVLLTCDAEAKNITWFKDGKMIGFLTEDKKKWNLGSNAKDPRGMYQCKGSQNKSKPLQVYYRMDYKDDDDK

B1: H183/L072 VL R29Q (antibody, name in Kabat numbering, V domains shown)
VH: QVQLVESGGGLVQPGRSLRLSCAASGFTFSNAWMHWVRQAPGKGLEWVAQIKDKGNAYAAYYAPSVKGRFTISRDDSKNSIYLQMNSLKTEDTAVYYCHYVHYASASTVLPAFGVDAWGQGTTVTVSS
VL: DIVMTQSPLSLPVTPGEPASISCQASQELVHMNQNTYLHWYQQKPGQAPRLLIYKVSNRFPGVPDRFSGSGSGTDFTLKISRVEAEDVGVYYCAQGTSVPFTFGQGTKLEIK
B2: H183/L072 VL S26E (antibody, name in Kabat numbering, V domains shown)
VH: B1 VH
VL: B1 VL with S26E, Q34R
B3: H183/L072 VL S26N (antibody, name in Kabat numbering, V domains shown)
VH: B1 VH
VL: B1 VL with S26N, Q34R
B4: H183/L072 VL S26L (antibody, name in Kabat numbering, V domains shown)
VH: B1 VH
VL: B1 VL with S26L, Q34R
B5: H183/L072 VL R54T (antibody, name in Kabat numbering, V domains shown)
VH: B1 VH
VL: B1 VL with Q34R, R59T
B6: H183/L072 VL S26M (antibody, name in Kabat numbering, V domains shown)
VH: B1 VH
VL: B1 VL with S26M, Q34R
B7: H183/L072 VL S26F (antibody, name in Kabat numbering, V domains shown)
VH: B1 VH
VL: B1 VL with S26F, Q34R
B8: H183/L072 VL R29T (antibody, name in Kabat numbering, V domains shown)
VH: B1 VH
VL: B1 VL with Q34T
B9: H183/L072 VL R54D (antibody, name in Kabat numbering, V domains shown)
VH: B1 VH
VL: B1 VL with Q34R, R59D
B10: H183/L072 VL R54P (antibody, name in Kabat numbering, V domains shown)
VH: B1 VH
VL: B1 VL with Q34R, R59P
B11: H183/L072 VL R54I (antibody, name in Kabat numbering, V domains shown)
VH: B1 VH
VL: B1 VL with Q34R, R59I
B12: H183/L072 VL S26K (antibody, name in Kabat numbering, V domains shown)
VH: B1 VH
VL: B1 VL with S26K, Q34R
B13: H183/L072 VL R29V (antibody, name in Kabat numbering, V domains shown)
VH: B1 VH
VL: B1 VL with Q34V
B14: H183/L072 VL R54N (antibody, name in Kabat numbering, V domains shown)
VH: B1 VH
VL: B1 VL with Q34R, R59N
B15: H183/L072 VL S26I (antibody, name in Kabat numbering, V domains shown)
VH: B1 VH
VL: B1 VL with S26I, Q34R
B16: H183/L072 VL R29Y (antibody, name in Kabat numbering, V domains shown)
VH: B1 VH
VL: B1 VL with Q34Y
B17: H183/L072 VL S26Q (antibody, name in Kabat numbering, V domains shown)
VH: B1 VH
VL: B1 VL with S26Q, Q34R
B18: H183/L072 VL R54G (antibody, name in Kabat numbering, V domains shown)
VH: B1 VH
VL: B1 VL with Q34R, R59G
B19: H183/L072 VL R54K (antibody, name in Kabat numbering, V domains shown)
VH: B1 VH
VL: B1 VL with Q34R, R59K
B20: H183/L072 VL S26Y (antibody, name in Kabat numbering, V domains shown)
VH: B1 VH
VL: B1 VL with S26Y, Q34R
B21: H183/L072 VL R29S (antibody, name in Kabat numbering, V domains shown)
VH: B1 VH
VL: B1 VL with Q34S
B22: H183/L072 VL S52A (antibody, name in Kabat numbering, V domains shown)
VH: B1 VH
VL: B1 VL with Q34R, S57A
B23: H183/L072 VL R54F (antibody, name in Kabat numbering, V domains shown)
VH: B1 VH
VL: B1 VL with Q34R, R59F
B24: H183/L072 VL S26D (antibody, name in Kabat numbering, V domains shown)
VH: B1 VH
VL: B1 VL with S26D, Q34R
B25: H183/L072 VL R54L (antibody, name in Kabat numbering, V domains shown)
VH: B1 VH
VL: B1 VL with Q34R, R59L
B26: H183/L072 VL R54Q (antibody, name in Kabat numbering, V domains shown)
VH: B1 VH
VL: B1 VL with Q34R, R59Q
B27: H183/L072 VL S26G (antibody, name in Kabat numbering, V domains shown)
VH: B1 VH
VL: B1 VL with S26G, Q34R
B28: H183/L072 VL S52D (antibody, name in Kabat numbering, V domains shown)
VH: B1 VH
VL: B1 VL with Q34R, S57D
B29: H183/L072 VL S26T (antibody, name in Kabat numbering, V domains shown)
VH: B1 VH
VL: B1 VL with S26T, Q34R
B30: H183/L072 VL S26H (antibody, name in Kabat numbering, V domains shown)
VH: B1 VH
VL: B1 VL with S26H, Q34R
B31: H183/L072 VL R54V (antibody, name in Kabat numbering, V domains shown)
VH: B1 VH
VL: B1 VL with Q34R, R59V
B32: H183/L072 VL R54W (antibody, name in Kabat numbering, V domains shown)
VH: B1 VH
VL: B1 VL with Q34R, R59W
B33: H183/L072 VL R54S (antibody, name in Kabat numbering, V domains shown)
VH: B1 VH
VL: B1 VL with Q34R, R59S
B34: H183/L072 VL R29W (antibody, name in Kabat numbering, V domains shown)
VH: B1 VH
VL: B1 VL with Q34W
B35: H183/L072 VL R54H (antibody, name in Kabat numbering, V domains shown)
VH: B1 VH
VL: B1 VL with Q34R, R59H
B36: H183/L072 VL S26W (antibody, name in Kabat numbering, V domains shown)
VH: B1 VH
VL: B1 VL with S26W, Q34R
B37: H183/L072 VL S26V (antibody, name in Kabat numbering, V domains shown)
VH: B1 VH
VL: B1 VL with S26V, Q34R
B38: H183/L072 VL R54E (antibody, name in Kabat numbering, V domains shown)
VH: B1 VH
VL: B1 VL with Q34R, R59E
B39: H183/L072 VL R54M (antibody, name in Kabat numbering, V domains shown)
VH: B1 VH
VL: B1 VL with Q34R, R59M
B40: H183/L072 VL S26R (antibody, name in Kabat numbering, V domains shown)
VH: B1 VH
VL: B1 VL with S26R, Q34R
B41: H183/L072 VL S26P (antibody, name in Kabat numbering, V domains shown)
VH: B1 VH
VL: B1 VL with S26P, Q34R
B42: H183/L072 VL R54A (antibody, name in Kabat numbering, V domains shown)
VH: B1 VH
VL: B1 VL with Q34R, R59A

Target: T1, Human CD3eg linker
Assay: SPR; fold vs parent H183/L072

Row | Binder | fold change of affinity [fold]
1 | B1 | 0.7
2 | B2 | 0.7
3 | B3 | 0.9
4 | B4 | 0.5
5 | B5 | 0.8
6 | B6 | 0.6
7 | B7 | 0.6
8 | B8 | 0.8
9 | B9 | 0.5
10 | B10 | 0.9
11 | B11 | 1.3
12 | B12 | 0.7
13 | B13 | 0.3
14 | B14 | 1
15 | B15 | 0.5
16 | B16 | 0.5
17 | B17 | 0.8
18 | B18 | 1.1
19 | B19 | 1.7
20 | B20 | 0.4
21 | B21 | 0.8

Row | Binder | fold change of affinity [fold]
22 | B22 | 1.2
23 | B23 | 1.5
24 | B24 | 0.8
25 | B25 | 1.3
26 | B26 | 1.2
27 | B27 | 0.9
28 | B28 | 1
29 | B29 | 1.4
30 | B30 | 0.4
31 | B31 | 1.1
32 | B32 | 1.4
33 | B33 | 1.2
34 | B34 | 0.5
35 | B35 | 1.9
36 | B36 | 0.3
37 | B37 | 0.6
38 | B38 | 0.8
39 | B39 | 1.7
40 | B40 | 0.5
41 | B41 | 0.2
42 | B42 | 1
